In patent publication US20130142799A1 (Amgen, published 2013):
Each block holds one binder with its values, some of them ahead of it.

Columns and labels:
human angiopoietin-2 [1] = target: T1, human angiopoietin-2 (human, UniProt O15123 19-496, limits assumed); assay: HTRF: antibody titrated against biotinylated human Ang2 and APC-conjugated human Tie2-Fc
T1 construct: also called hAng-2; huAng-2
T1 sequence (looked up): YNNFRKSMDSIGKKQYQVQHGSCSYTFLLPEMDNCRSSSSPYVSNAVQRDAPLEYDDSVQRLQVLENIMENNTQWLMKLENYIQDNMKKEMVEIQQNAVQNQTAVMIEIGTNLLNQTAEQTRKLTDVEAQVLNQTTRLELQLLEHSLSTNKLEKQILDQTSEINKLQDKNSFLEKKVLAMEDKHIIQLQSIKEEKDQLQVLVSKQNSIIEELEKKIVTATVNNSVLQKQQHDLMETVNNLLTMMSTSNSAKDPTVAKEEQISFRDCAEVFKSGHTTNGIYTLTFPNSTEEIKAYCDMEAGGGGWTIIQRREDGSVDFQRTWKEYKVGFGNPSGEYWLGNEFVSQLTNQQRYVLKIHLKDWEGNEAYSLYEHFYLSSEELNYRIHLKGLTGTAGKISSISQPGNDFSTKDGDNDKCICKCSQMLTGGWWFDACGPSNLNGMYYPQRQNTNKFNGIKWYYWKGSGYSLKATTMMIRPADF
Procedure: For HTRF assays, a ninety-six-well microtiter “mix plate” was prepared by adding 50 ul of HTRF buffer (50 mM Tris-HCl, pH 7.5, 100 mM NaCl, 0.05% Tween 20, 0.1% BSA) containing 0.8 nM Europium-conjugated streptavidin (PERKIN ELMER LIFE SCIENCES INC., catalog #AD0062) and 4.0 nM biotinylated human angiopoietin 1 (R & D Systems) or angiopoietin 2 (Amgen Inc.) to each well. In a separate microtiter plate, angiopoietin-neutralizing agents were titrated from 400 nM to […] in HTRF buffer, and 50 ul of each serially-diluted angiopoietin-neutralizing agent were then transferred and mixed with the “mix plate” containing the streptavidin-Europium/angiopoietin. The plate was then incubated on a shaker at room temperature for one hour. […] The final “assay plate” was incubated at room temperature with shaking for two hours. […] Assay plates were analyzed using a Rubystar plate reader (BMG Labtechnologies, Offenberg, Germany). […] IC50 values were then calculated by analyzing percentage inhibition using the GRAFIT 5.0 program (Erithacus Software Ltd.).
(§1) All results were expressed as IC50 curves calculated from samples that were tested in duplicate using the formula below.

human angiopoietin-2 [2] = target: T1, human angiopoietin-2; assay: ELISA: antibody titrated against 1 nM hTie2-Fc on plate-bound human Ang2 (293T conditioned media)
Procedure: (§2) For the ELISA assay, ninety-six-well microtiter plates were coated with recombinant angiopoietins in 293T cell conditioned media (DMEM/50 ug/ml BSA) at 37° C. for 1 hour. […] Plates were washed with PBS/0.1% Tween-20 and then blocked for 2 hours at room temperature with PBS/5% BSA. […] Goat anti-mouse-IgG-HRP (Pierce, catalog #31432) was added at a dilution of 1:10,000 in PBS/1% BSA (1 hour incubated at room temperature), after which plates were washed several times with PBS/0.1% Tween-20.
as §1

[3] = target: T2, Mouse Ang2 (recombinant, 293T cell conditioned media) (mouse, UniProt O35608 19-496); assay: ELISA: antibody titrated against 1 nM hTie2-Fc on plate-bound mouse Ang2 (293T conditioned media)
T2 construct: construct not described
T2 sequence (looked up): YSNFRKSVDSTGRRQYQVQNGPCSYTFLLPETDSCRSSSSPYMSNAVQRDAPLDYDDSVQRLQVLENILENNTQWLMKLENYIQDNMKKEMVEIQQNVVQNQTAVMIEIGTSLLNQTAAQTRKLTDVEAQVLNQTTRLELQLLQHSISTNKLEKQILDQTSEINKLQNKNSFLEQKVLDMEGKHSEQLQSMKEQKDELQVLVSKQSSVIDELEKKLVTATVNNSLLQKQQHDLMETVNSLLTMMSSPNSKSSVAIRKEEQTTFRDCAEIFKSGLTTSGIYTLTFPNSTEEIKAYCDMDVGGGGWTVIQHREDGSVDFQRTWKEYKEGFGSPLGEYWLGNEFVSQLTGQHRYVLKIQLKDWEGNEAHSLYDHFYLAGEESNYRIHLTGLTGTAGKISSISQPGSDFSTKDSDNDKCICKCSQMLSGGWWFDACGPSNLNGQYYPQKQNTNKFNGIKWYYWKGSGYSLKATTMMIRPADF
Procedure: as §2, §1

human angiopoietin-1 [4] = target: T3, human angiopoietin-1 (human, UniProt Q15389 20-498); assay: Affinity ELISA on plate-bound hAng-1
T3 construct: also called hAng-1; Human Ang1
T3 sequence (looked up): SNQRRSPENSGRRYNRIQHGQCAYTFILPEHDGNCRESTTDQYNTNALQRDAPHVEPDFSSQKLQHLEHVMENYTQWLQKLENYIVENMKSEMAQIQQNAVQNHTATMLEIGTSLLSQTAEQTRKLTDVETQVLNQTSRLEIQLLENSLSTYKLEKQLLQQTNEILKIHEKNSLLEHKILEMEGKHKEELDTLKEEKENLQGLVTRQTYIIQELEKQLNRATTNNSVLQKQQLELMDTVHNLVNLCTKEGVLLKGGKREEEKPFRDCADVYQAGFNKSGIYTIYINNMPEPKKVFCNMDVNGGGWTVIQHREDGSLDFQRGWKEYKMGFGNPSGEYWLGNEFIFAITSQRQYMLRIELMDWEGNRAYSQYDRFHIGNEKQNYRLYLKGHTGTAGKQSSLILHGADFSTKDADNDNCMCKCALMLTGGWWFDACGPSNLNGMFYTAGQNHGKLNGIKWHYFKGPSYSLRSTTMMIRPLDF

human angiopoietin-2 [5] = target: T1, human angiopoietin-2; assay: Affinity ELISA on plate-bound hAng-2
murine Ang-2, His-tagged [6] = target: T4, murine Ang-2, His-tagged (mouse, UniProt O35608 19-496); assay: Affinity ELISA on plate-bound mAng-2
T4 construct: also called mAng-2; mAng-2-His
T4 sequence (looked up): T2 sequence (looked up)

murine Ang-2, His-tagged [7] = target: T4, murine Ang-2, His-tagged; assay: BIAcore: antibody captured on Protein G, mAng-2 injected
Procedure: (§3) Binding assays were carried out by first attaching about 100 Ru of each candidate anti-Ang-2 antibody to the immobilized Protein G, after which various concentrations (0-100 nM) of huAng-2 or mAng-2 were then injected over the bound antibody surface at a flow rate of about 50 ul/min for about 3 minutes. Antibody binding kinetics including kₐ (association rate constant), kd (dissociation rate constant) and KD (dissociation equilibrium constant) were determined using the BIA evaluation 3.1 computer program (BIAcore, Inc.).

human angiopoietin-2 [8] = target: T1, human angiopoietin-2; assay: BIAcore: antibody captured on Protein G, huAng-2 injected
Procedure: as §3

human angiopoietin-1 [9] = target: T3, human angiopoietin-1; assay: Neutralization ELISA: antibody titrated against 1 nM Tie2-Fc on plate-bound hAng-1
human angiopoietin-2 [10] = target: T1, human angiopoietin-2; assay: Neutralization ELISA: antibody titrated against 1 nM Tie2-Fc on plate-bound hAng-2
Procedure: Microtiter plates to which human Ang-2 polypeptide was bound were prepared as described for the Affinity ELISA. […] Next, about 100 microliters per well of goat anti-mouse-IgG-HRP (Pierce Chemical CO., catalog #31432) was added at a dilution of 1:10,000 in PBS containing about 1 percent BSA. Plates were incubated at room temperature for about 1 hour, after which they were washed five times with PBS containing about 0.1 percent Tween-20. About 100 microliters per well of TMB substrate (described above) was then added and color was allowed to develop. Absorbance was then read in a spectrophotomer at 370 nm.
Seventeen of the antibodies and a negative control IgG1 (referred to as RDB1) were tested using affinity and neutralization ELISA (as described in Example 3 above) as well as the BIAcore neutralization assay to determine their affinity, neutralization, and specificity capabilities.

murine Ang-2, His-tagged [11] = target: T4, murine Ang-2, His-tagged; assay: Neutralization ELISA: antibody titrated against 1 nM Tie2-Fc on plate-bound mAng-2
Tie2-Fc = target: T5, Tie2-Fc (human, UniProt Q02763 23-748); assay: ELISA at one concentration on conditioned medium with N-terminal hAng-2 (aa 1-254, 6xHis); O.D. 370; control pCDNA3 vector medium
T5 construct: extracellular domain; Bought reagent; Allophycocyanin-conjugated in the HTRF assay; also called hTie2-Fc; human Tie2-Fc; not shown: Fc portion of the bought Tie2-Fc
T5 sequence (Q02763 23-748): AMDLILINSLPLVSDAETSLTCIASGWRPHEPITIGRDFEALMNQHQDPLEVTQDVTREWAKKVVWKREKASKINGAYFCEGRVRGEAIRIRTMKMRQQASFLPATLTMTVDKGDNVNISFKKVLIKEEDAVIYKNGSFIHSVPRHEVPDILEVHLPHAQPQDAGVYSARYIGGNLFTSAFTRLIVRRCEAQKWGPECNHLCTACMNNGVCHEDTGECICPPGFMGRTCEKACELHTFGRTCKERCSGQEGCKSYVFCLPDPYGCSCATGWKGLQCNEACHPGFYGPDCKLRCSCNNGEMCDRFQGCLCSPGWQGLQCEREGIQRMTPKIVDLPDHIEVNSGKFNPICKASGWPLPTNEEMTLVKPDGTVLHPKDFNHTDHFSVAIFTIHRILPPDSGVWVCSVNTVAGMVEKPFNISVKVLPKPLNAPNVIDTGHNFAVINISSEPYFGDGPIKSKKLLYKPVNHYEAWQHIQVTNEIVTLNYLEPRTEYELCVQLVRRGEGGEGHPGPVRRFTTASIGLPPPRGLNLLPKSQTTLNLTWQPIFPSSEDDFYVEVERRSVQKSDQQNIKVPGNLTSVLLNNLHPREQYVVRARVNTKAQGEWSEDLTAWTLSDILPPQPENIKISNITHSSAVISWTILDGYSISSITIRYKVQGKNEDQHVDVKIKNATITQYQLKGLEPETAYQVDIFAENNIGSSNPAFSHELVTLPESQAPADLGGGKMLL
Procedure: The binding epitope of anti-Ang-2 antibodies and peptibodies was determined by their ability to bind the three versions of human hAng-2 by ELISA according to the following protocol: a high-binding 96-well assay plate was coated with 100 μl of conditioned media per well, and incubated at 37° C. for 1 hour. Conditioned media was aspirated, and the plate was blocked with 200 μl per well of 5% BSA in PBS at room temperature for 1 hour. The blocking solution was then aspirated. […] The wells were washed 4 times with 200 μl of 0.1% Tween in PBS. 100 μl per well of HRP-conjugated goat anti-human IgG or goat anti-mouse IgG were added, and incubated at room temperature for 45 minutes. The wells were then washed with 200 μl of 0.1% Tween in PBS 4 times. 100 μl per well of TMB substrate was then added. O.D. was read at 370 nm.

B1: Ab536 LQT (antibody, human IgG1, kappa, V domains shown)
VH: EVQLVQSGGGVVQPGRSLRLSCAASGFTFSSYGMHWVRQAPGKGLEWVSYISSSGSTIYYADSVKGRFTISRDNAKNSLYLQMNSLRAEDTAVYYCARDLLDYDILTGYGYWGQGTLVTVSS
VL: not shown
notes: Fully human IgG1 kappa; variant separated from the clone 536 mixture; also called 536 kappa LQT variant
IC50 (human angiopoietin-2 [1]): 0.072 nM
IC50 (human angiopoietin-2 [2]): 0.35 nM
IC50 [3]: 0.1 nM

B2: Ab536 THW (antibody, human IgG1, kappa, V domains shown)
VH: B1 VH
VL: not shown
notes: Fully human IgG1 kappa; variant separated from the clone 536 mixture; also called 536 kappa THW variant
IC50 (human angiopoietin-2 [1]): 0.071 nM
IC50 (human angiopoietin-2 [2]): 0.31 nM
IC50 [3]: 0.088 nM

The remaining lines, values ahead:

EC50 (human angiopoietin-1 [4]): 2 nM
EC50 (human angiopoietin-2 [5]): 0.02 nM
EC50 (murine Ang-2, His-tagged [6]): 0.05 nM
Kd (murine Ang-2, His-tagged [7]): 0.9 nM
koff (murine Ang-2, His-tagged [7]): 0.00053 s⁻¹
kon (murine Ang-2, His-tagged [7]): 590000 M⁻¹ s⁻¹
Kd (human angiopoietin-2 [8]): 1.2 nM
koff (human angiopoietin-2 [8]): 0.00039 s⁻¹
kon (human angiopoietin-2 [8]): 330000 M⁻¹ s⁻¹
IC50 (human angiopoietin-1 [9]): 8.31 nM
IC50 (human angiopoietin-2 [10]): 1.04 nM
IC50 (murine Ang-2, His-tagged [11]): 1.3 nM
B3: Ab 545 (antibody, human IgG1, lambda, V domains shown)
VH: QVQLQESGGGVVQPGRSLRLSCAASGFTFSSYGMHWVRQAPGKGLEWVAVISYDGSNKYYADSVKGRFTISRDNSKNTLYLQMNSLRAEDTAVYYCAKGPVDFDYGDYAIDYWGQGTLVTVSS
VL: QSVLTQPSSVSGAPGQRVTISCTGQSSNIGAGYDVHWYQQFPGRAPKLLIYGNSNRPSGVPDRFSGSKSGTSASLAITGLQPEDEADYYCQSYDSRLSGSVFGGGTKLTVLG
notes: Fully human IgG1 lambda; also called clone 545

binding result (Tie2-Fc): no binding (tested: 1 µg/ml)
B4: N-term hAng2 (aa 1-254) (ligand)
chain: YNNFRKSMDSIGKKQYQVQHGSCSYTFLLPEMDNCRSSSSPYVSNAVQRDAPLEYDDSVQRLQVLENIMENNTQWLMKLENYIQDNMKKEMVEIQQNAVQNQTAVMIEIGTNLLNQTAEQTRKLTDVEAQVLNQTTRLELQLLEHSLSTNKLEKQILDQTSEINKLQDKNSFLEKKVLAMEDKHIIQLQSIKEEKDQLQVLVSKQNSIIEELEKKIVTATVNNSVLQKQQHDLMETHHHHHH
notes: also called N-terminal human Ang-2
